Experiment: yeast display, Sf9 membrane polyspecificity reagent, FACS + sequencing; frameworks hold sequencing errors
Outline: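 Synthetic nanobody libraries on Saccharomyces cerevisiae BJ5465 were galactose-induced for 36–48 hours, stained 1 hour at 4 °C with 10% biotinylated, detergent-solubilized Sf9 membrane reagent and enriched on streptavidin microbeads. FACS then separated cells into low and high (top ~1%) gates by anti-HA (expression) and streptavidin (reagent binding) fluorescence. Genes were colony-PCR amplified, MiSeq 2 × 250 sequenced and CDR-length filtered. A clone's polyreactivity label is that of its gate of origin.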

Sequence	polyreactivity (PSR sort gate)
QVQLVESGGGLVQAGGSLRLSCAASGSTFSYYAMGWYRQAPGKERELVAAISWSGGSKYYADSVKGRFTISRDNAKNTVYLQMNSLKPEDTAVYYCAVYYSYWFDYWGQGTQVTVSS	high polyreactivity
QVQLVESGGGLVQAGGSLRLSCAASGSTFSYYAMGWYRQAPGKERELVAAITSGGRTKYADSVKGRFTISRDNAKNTVYLQMNSLKPEDTAVYYCAKRIEKFSGSLAGRWYDYWGQGTQVTVSS	high polyreactivity
QVQLVESGGGLVQAGGSLRLSCAASGSTFSYYGMGSYRTAPGKERELVDAIDYSGDSTYDADSVKGRFTISRDNAKNTVYLQMNSLKPEDTAVYYCAADDYPWNRYAYWGQGTQVPVSS	low polyreactivity
QVQLVESGGGLVQAGGSLRLSCAASGSTFSYYTMGWYRQAPGKERELVAAITRRGDSTYADSVKGRFTISRDNAKTTVYLQMNSLKPEDTAVYYCAADASVGVSGMDYWGQGSQVTVSS	low polyreactivity
QVQLVESGGGLVQAGGSLRLSCAASGSTFTANAMGWYRQAPGKERELVAAISRSGGSTYYADSVKGRFTISRDNAKNTVYLQMNSLKPEDTAVYYCAADEYYQVSAYDYWGQGTQVTVSS	low polyreactivity
QVQLVESGGGLVQAGGSLRLSCAASGSTFTGNAMGWYRQAPGKERELVAAISRSGGSTFYADSVKGRFTISRDNAKNTVYLQMNSLKPEDTAVYYCATRYVVDMDYWGQGTQVTVSS	high polyreactivity
QVQLVESGGGLVQAGGSLRLSCAASGSTFTGNAMGWYRQAPGKERELVAAISRSGGSTFYADSVKGRFTISRDNAKYTVYLQMNSLKAEDTAVYYCATRYVVDMDYWGQGTQVTVSW	high polyreactivity
QVQLVESGGGLVQAGGSLRLSCAASGSTFTGNAMGWYRQAPGKERELVADISSGASTNYADSVKGRFTISRDNAKNTVYLQMNSLKPEDTAVFYCAADSWDYDSRMDYWGQGTQVTVSS	low polyreactivity
QVQLVESGGGLVQAGGSLRLSCAASGSTFTGNVMGWYRQAPGKERELVAAIDSGATTNYADSVKGRFTISRDNAKNTVYLQINSLKPEDTAVYYCATDGLDFWFIYDYWGQGTQVTVSS	low polyreactivity
QVQLVESGGGLVQAGGSLRLSCAASGSTFTGYAMGWYRQAPGKEREFVANITKRGGRTYYADSVKGRFTISRDNAKNTVYLQMNSLKPEDTAGYYCARDQGKLVVPYEYWGQATQVTVSS	high polyreactivity
QVQLVESGGGLVQAGGSLRLSCAASGSTFTGYAMGWYRQAPGKERELVAAIDVSGATTYYADSVKGRFTISRDNAKNTVYLQMNSLKPEDTAVYYCATYATNSVAAYDYWGQGTQVTVSS	low polyreactivity
QVQLVESGGGLVQAGGSLRLSCAASGSTFTGYAMGWYRQAPGKERELVAAISISGGRTFYADSVKGRFTISRDNAKNTVYLQMNSLKPEDTAVYFCAAYLRGSKYSFDYWVQGTQVTVSS	high polyreactivity
QVQLVESGGGLVQAGGSLRLSCAASGSTFTGYAMGWYRQAPGNEREFVAAISRRGGSTYYADSVKGRFTISRDNAKNTVYLQMNSLKPEDTAVYYCAARGVGGTVPTRYDYWGQGTQVTVSS	high polyreactivity
QVQLVESGGGLVQAGGSLRLSCAASGSTFTINVMGWYRQAPGKERELVAAINGGGRTNYADSVKGRFTISRDNAKNTVYLQMNSLKPEDTAVYYCNARYGNESQGWEDYWGQGTKVTVSS	low polyreactivity
QVQLVESGGGLVQAGGSLRLSCAASGSTFTIYAIGWSRQAPGKERELVAGITRVGSTNYADSVKGRFTISRDNAKNTVYLQMNSLKPEDTAVYYCARRDLFQAGYEYWGQGTQVTVSS	low polyreactivity
QVQLVESGGGLVQAGGSLRLSCAASGSTFTLNAMVWYRQAPGKERELVADISWSSGRTYYADSVKGRFTISRDNAKNTVYLQMNSLKPEVSAVYYCATYDFWKVKFYAYYPEFDYWGQGTQVTVSS	low polyreactivity
QVQLVESGGGLVQAGGSLRLSCAASGSTFTLYALGWYRQAPGKERELVASITWSGSPYADSVKGRFTISRDNAKNTVYLQMNSLIPEDTAVYYCNTDPRSVVGWYDYWGQGTQVTVSS	low polyreactivity
QVQLVESGGGLVQAGGSLRLSCAASGSTFTLYAMGWYRQAPGKERELVATITGSGGSTNYADSVKGRFTISRDNAKNTVYLQMNSLKPEDTAVYYCAAYNPFYYKFDYWGQGTQVTVSS	high polyreactivity
QVQLVESGGGLVQAGGSLRLSCAASGSTFTLYVMGWYRQAPGKERELVAAITSSGDSTDYADSVKGRFTISRDNAKNTVYLQMNSLKPEDTAVYYCNVQPVYADHFTEFDYWGQGTQVTVSS	low polyreactivity
QVQLVESGGGLVQAGGSLRLSCAASGSTFTNNGMGWYRQAPGKERELVATISWDGDSTYYADSVKGRFTISRDNAKNSVYLQMNSLKPEDTAVYDCAADYRLHYSYPYEVVQYEYWGQGTQVTVSS	low polyreactivity
QVQLVESGGGLVQAGGSLRLSCAASGSTFTPNAMGSYRQAPGKERELDASISTTGGNTYYADSVKGRFTISRDNAKNTVYLQMNSLKPEDTAVYYCNAVRSVYLYGYIYGVDYWGQGTQVTVSS	low polyreactivity
QVQLVESGGGLVQAGGSLRLSCAASGSTFTPYAMGWYRQAPGKERELVAAISSTGGITYYADSVKGRFTISRDNAKNTVYLQMNSLKPEDTAVYYCAADAYYYGYEYWGQGTQVTVSS	high polyreactivity

Sequence	polyreactivity (PSR sort gate)
QVQLVESGGGLVQAGGSLRLSCAASGSTFTPYAMGWYRQAPGKERELVAGITGNGGSTRYADSVKGRFTISRDNAKNTVYLQMNSLKTEDTAVYYCAARWTRERYRTSYYSWGQGTQVTVSS	high polyreactivity
QVQLVESGGGLVQAGGSLRLSCAASGSTFTPYVMGWYRQAPGKERELVASITGGGGSTYADSVKGRFTISRDNAKNTVYLQMNSLKPEDTAVYYCGARVWRSYNYWGQGTQVTVSS	high polyreactivity
QVQLVESGGGLVQAGGSLRLSCAASGSTFTPYVMGWYRQAPGKEREVVAAISNVGRTYYADSVKGRFTISRDNAKNTVYLQMNSLKPEDTAVYYCAVRRDKNYYDWGQGTQVTVSS	high polyreactivity
QVQLVESGGGLVQAGGSLRLSCAASGSTFTRNAMGWYRQAPGKERELVATISSGGSTNYADSVKGRFTISRDNAKNTVYLQMNSLKPEDTAVYYCDKRSLYRYYYWGQGTQVTVSS	high polyreactivity
QVQLVESGGGLVQAGGSLRLSCAASGSTFTRNAMGWYRQAPGKEWELVAAITSSGGSTYYAASVKGRFTISRDNAKNTVYLQMNSLKPEDNAVYYCAAYPHRPRDPELDHWGQGTQVTVSS	low polyreactivity
QVQLVESGGGLVQAGGSLRLSCAASGSTFTRNTMGWYKQAPGKERELVAAISRRGGRTDYADSVKGRFTISRDNAKNTVYLQMNSLKPEDTAVYYCAADPITVDQNPRYGYWGQGTQVTVSS	high polyreactivity
QVQLVESGGGLVQAGGSLRLSCAASGSTFTRNTMGWYRQAPGKERELVAVISRRGGSTYYADSVKGRFTISRDNAKNTVYLQMNSLKPEDTAVYYCNTAAYRLQYEYWGQGTQVTVSS	high polyreactivity
QVQLVESGGGLVQAGGSLRLSCAASGSTFTRYAMGSYRQAPGKERELVAAISRTGGSRTYYADSVKGRFTISRDNAKNTVYLQMNSLNPEDTAVYYCAKGYWRYLGFLYFFPARDYWGQGTQVTVSS	high polyreactivity
QVQLVESGGGLVQAGGSLRLSCAASGSTFTRYAMGWYRQAPGKEREFVAAINWSGTSTYYADSVKGRFTISRDTAKNTVYLQMNSLKPEDTAVYYCNAYTVRSYRFDYWGQGTQVTVSS	high polyreactivity
QVQLVESGGGLVQAGGSLRLSCAASGSTFTSNVMGWYRQAPGKERELVAAISQSGGRTYYADSVKGRFTISRDNAKNTVYLQMNSLKPEDTAVYYCAASYVHYHMDYWGQGTQVTVSS	high polyreactivity
QVQLVESGGGLVQAGGSLRLSCAASGSTFTSNVMGWYRQAPGKERELVAAISTNGGRTYYADSVKGRFTISRDNAKNTVYLQMNSLKPEDTAVYYCAASLPRPGIGGRDYWGQGTQVTVSS	low polyreactivity
QVQLVESGGGLVQAGGSLRLSCAASGSTFTSYVMGWYRQAPGKEREFVAAITSSGGDTYYADSVKGRFTISRDNAKNTVYVQMNSLKPEDTEVYYCATRSYYRSSYYRNRYPYDYWGQGTLVTVSS	low polyreactivity
QVQLVESGGGLVQAGGSLRLSCAASGSTFTTNAMGWSRQAPGNERELVATISGGGSTYYADSVKGRFTISRDNAKNTVYLQMNSLKPEDTAVYDCATDVQVPGIGRSVYAYEYWGQGTQVTVSS	low polyreactivity
QVQLVESGGGLVQAGGSLRLSCAASGSTFTTNAMGWYRQAPGKERELVASITWSGGGTNYADSVKGRFTISRDNAKNSVFLQMNSLKPEDTAVYSCADDYDDSHLRSDYWGQGTQVTVSS	low polyreactivity
QVQLVESGGGLVQAGGSLRLSCAASGSTFTTYAMGWYRQAPGKERELVAAISNNGGRTFYADSVKGRFTISRDNAKNTVYLQMNSLKPEDTAVYYCAAEYGLYAPGYYYWGQGTQVTVSS	low polyreactivity
QVQLVESGGGLVQAGGSLRLSCAASGSTFTTYAMGWYRQAPGKERELVAAISYGGGSTYYADSVKGRFTISRDNAKNTVYLQMNSLKPEDTAVYFCAAVAWASDGYDSWGQGTQVTVSS	low polyreactivity
QVQLVESGGGLVQAGGSLRLSCAASGSTFTTYAMGWYRQATGKERELVASITWRGGSTYADSVKGRFTISRDNAKNTVYLEMNSLKPEDTAVYYCAAATRASAQFPRQRYYYWGQGTQVTVSS	high polyreactivity
QVQLVESGGGLVQAGGSLRLSCAASGSTFTTYDMGWYRQAPGKERELVAGITGSGTSTFYADSVKGRFTISRDNAKNTVYLQMKSLKPEDTAVYYCATDWYTPEEYVTGAIEEYYWGQGTLVTVSS	low polyreactivity
QVQLVESGGGLVQAGGSLRLSCAASGSTFTVYAMGWYRQAPGKERELVAAITVSTDSTYYADSVKGRFTISRDNAKNTVYLQMNSLKPEDTAVYYCAADSARSGYGRYDSWGQGTQVTVSS	low polyreactivity
QVQLVESGGGLVQAGGSLRLSCAASGSTFTWNGMGWYRQAPGKERELVATISYGGGRTYYADSVKGRFTISRDNAKNTVYLQMNSLKPEDTAVYYCAADFTRYTQVHALRLSEYWGQGTQVTVSS	low polyreactivity
QVQLVESGGGLVQAGGSLRLSCAASGSTFTWYAMGWYRQAPGKERELVAAIRWSGGNTYYADSVKGRFTISRDTAKNTVYLHMNSLKPEDTGVYYCAAVSRTYSLQMYYWGQGTQVTVSS	high polyreactivity
